Measurements: US20250235501A1, “Methods and Compositions for Treating or Preventing Neurological Injury or Neurological Disorders” (University of Connecticut, priority 2024, published 2025)

Molecular target: T1, NMDARs (Rattus norvegicus, UniProt Q00959+Q00960)
T1 construct: TRPM2 plasmid a gift 17928; 17924; 17925; host or cells: HEK293T
Assay: NMDAR currents in HEK-293T cells transfected with NMDARs and TRPM2 (whole cell recording)
Type: cell-based, human
Conditions: 10 μM peptide overnight; 10 μM NMDA, -80 mV
Method: FIGS. 5G and 5H show the effects of TAT-EE3 on NMDAR currents in HEK-293T cells transfected with NMDARs and TRPM2. Transfected cells were treated with 10 μM TAT-EE3 or TAT-SC for overnight. FIG. 5G is representative NMDAR currents elicited at −80 mV by exposing to 10 μM NMDA for about 2 to 4 s.
were ordered from GenScript Biotech, and dissolved in PBS to make a stock concentration at 10 mM. HEK-293T cells or isolated neurons were treated with TAT-SC or TAT-EE3 at a concentration of 10 μM for at least 8 h prior to use. Mice were injected with TAT-SC or TAT-EE3 intraperitoneally (ip) at a dose of 100 nmol/kg.
Whole cell currents were recorded using an Axopatch 200B amplifier. Data were digitized at 10 or 20 kHz and digitally filtered offline at 1 kHz. Patch electrodes were pulled from borosilicate glass and fire-polished to a resistance of ˜3 MΩ when filled with internal solutions. Series resistance (Rs) was compensated up to 90% to reduce series resistance errors to <5 mV. Cells in which Rs was >10 MΩ were discarded (Du, J., Xie, J., and Yue, L. (2009). Modulation of TRPM2 by acidic pH and the underlying mechanisms for pH sensitivity. J Gen Physiol 134, 471-88).
For heterologous expression, transfected HEK-293 cells were identified by GFP fluorescence. […]

T1 sequence (Q00959 23-1464, other chains not shown): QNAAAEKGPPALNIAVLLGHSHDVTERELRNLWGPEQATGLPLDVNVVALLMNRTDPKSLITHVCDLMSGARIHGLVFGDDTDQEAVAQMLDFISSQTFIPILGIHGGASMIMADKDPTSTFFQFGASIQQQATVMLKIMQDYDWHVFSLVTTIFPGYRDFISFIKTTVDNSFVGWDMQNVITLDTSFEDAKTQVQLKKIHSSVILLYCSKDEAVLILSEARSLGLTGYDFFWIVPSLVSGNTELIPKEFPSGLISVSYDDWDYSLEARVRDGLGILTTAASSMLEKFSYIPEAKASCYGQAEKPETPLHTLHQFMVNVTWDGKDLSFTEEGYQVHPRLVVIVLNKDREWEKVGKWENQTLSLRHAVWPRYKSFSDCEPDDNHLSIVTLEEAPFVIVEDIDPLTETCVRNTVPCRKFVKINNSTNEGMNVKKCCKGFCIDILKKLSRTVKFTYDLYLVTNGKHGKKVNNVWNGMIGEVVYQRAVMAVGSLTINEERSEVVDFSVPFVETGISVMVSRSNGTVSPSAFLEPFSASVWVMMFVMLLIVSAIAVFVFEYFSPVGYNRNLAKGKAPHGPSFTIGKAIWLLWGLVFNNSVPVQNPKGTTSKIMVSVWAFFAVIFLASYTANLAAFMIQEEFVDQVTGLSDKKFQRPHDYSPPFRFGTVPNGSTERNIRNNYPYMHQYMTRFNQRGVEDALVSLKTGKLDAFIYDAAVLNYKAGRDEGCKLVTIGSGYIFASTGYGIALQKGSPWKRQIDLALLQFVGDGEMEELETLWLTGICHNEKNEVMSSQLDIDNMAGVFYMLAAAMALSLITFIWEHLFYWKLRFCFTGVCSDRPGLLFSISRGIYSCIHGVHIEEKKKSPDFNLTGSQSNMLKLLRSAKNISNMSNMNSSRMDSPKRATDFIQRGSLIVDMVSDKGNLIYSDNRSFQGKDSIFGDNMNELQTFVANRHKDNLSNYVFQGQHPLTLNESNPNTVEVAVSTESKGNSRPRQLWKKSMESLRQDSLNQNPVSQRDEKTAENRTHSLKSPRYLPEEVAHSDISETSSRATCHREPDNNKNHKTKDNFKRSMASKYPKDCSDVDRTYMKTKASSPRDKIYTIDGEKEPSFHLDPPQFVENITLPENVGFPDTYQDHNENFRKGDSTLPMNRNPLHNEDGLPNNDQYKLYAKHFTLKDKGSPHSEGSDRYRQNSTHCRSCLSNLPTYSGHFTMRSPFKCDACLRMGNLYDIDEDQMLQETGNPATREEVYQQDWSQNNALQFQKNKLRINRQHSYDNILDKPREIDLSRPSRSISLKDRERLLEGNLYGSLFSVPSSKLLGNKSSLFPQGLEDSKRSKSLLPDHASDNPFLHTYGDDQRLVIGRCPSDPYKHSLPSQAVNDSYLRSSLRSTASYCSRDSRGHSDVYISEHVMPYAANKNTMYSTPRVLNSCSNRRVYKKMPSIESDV
T1 sequence (Q00960 27-1482, other chains not shown): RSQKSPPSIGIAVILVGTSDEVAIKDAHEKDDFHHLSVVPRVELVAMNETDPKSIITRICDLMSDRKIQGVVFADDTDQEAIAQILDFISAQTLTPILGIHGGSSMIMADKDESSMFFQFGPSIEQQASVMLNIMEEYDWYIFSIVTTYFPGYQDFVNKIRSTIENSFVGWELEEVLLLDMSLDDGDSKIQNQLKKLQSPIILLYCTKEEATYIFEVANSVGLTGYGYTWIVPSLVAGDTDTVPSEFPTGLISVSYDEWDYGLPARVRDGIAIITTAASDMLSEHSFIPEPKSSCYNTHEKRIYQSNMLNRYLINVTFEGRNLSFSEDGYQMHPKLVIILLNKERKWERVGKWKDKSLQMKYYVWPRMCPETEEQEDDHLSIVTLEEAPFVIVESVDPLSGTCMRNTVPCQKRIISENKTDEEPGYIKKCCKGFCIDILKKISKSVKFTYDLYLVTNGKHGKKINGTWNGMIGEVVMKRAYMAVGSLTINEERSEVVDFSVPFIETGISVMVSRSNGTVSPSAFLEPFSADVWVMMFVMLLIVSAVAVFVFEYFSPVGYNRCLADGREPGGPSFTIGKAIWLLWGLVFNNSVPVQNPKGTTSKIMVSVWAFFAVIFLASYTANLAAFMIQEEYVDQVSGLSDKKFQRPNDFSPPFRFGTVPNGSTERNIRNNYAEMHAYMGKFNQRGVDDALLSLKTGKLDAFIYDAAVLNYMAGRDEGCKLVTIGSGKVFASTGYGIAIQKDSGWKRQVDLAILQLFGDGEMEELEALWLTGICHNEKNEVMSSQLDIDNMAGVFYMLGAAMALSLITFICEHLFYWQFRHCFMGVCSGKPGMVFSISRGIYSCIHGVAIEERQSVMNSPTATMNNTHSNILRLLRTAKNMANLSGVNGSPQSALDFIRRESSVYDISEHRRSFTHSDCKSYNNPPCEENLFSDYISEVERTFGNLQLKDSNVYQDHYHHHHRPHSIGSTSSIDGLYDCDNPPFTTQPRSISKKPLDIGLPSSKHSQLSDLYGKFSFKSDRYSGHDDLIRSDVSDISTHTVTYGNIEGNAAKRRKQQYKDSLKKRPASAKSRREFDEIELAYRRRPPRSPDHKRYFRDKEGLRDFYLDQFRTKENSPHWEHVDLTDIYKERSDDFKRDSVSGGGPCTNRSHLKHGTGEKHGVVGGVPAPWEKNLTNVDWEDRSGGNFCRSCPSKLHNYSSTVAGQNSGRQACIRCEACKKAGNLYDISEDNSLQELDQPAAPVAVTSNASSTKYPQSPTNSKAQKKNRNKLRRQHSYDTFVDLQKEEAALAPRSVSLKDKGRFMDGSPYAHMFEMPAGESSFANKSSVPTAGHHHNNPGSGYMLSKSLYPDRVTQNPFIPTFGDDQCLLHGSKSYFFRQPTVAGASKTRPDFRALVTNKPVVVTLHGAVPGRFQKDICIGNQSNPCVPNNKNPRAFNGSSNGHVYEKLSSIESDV

Q: “TAT-EE3: membrane permeable disrupting peptide, sequence YGRKKRRQRRREEDTDSSEEMLALAEE (SEQ ID NO: 4)” was tested. Which NMDAR current amplitude did it give?
A: Its NMDAR current amplitude is “significantly smaller than that in cells treated with TAT-SC”.
